Assay results taken from the RNAGym collection of RNA variant scans (doi:10.1093/molbev/msab373).

B1: Azoarcus group I ribozyme (parent)
chain: GUGCCUUGCGCCGGGAAACCACGCAAGGGAUGGUGUCAAAUUCGGCGAAACCUAAGCGCCCGCCCGGGCGUAUGGCAACGCCGAGCCAAGCUUCGGCGCCUGCGCCGAUGAAGGUGUAGAGACUAGACGGCACCCACCUAAGGCAAACGCUAUGGUGAAGGCAUAGUCCAGGGAGUGGCGAAAGUCACACAAACCGG

Variants of: B1
Experiment: reverse-splicing fitness (ratio to wild type); higher = more active; in vitro selection; Mg2+ level not given
Summary of the method: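 An in vitro group I ribozyme library with randomized positions was T7-transcribed and gel-purified. In triplicate, 10 pmol RNA in EPPS pH 7.5 was reacted with 50 pmoles of a 30-nt RNA substrate for 1 h at 37 °C across several added MgCl2 levels (1–48 mM), then stopped with EDTA. Products were reverse transcribed from a substrate-complementary primer, PCR-amplified and sequenced (HiSeq 4000). Fitness is a variant's read proportion after selection over that before, normalised to wild type.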

Row | Variant | reverse-splicing fitness
1 | C82U A111G A120G A145U C169U U176G | 0.00342
2 | C82U A111G A120G A145U U176A | 0.0116
3 | C82U A111G A120G A145U U176C | 0.0141
4 | C82U A111G A120G A145U U176G | 0.00443
5 | C82U A111G A120G C150A | 0.00982
6 | C82U A111G A120G C150A C169A | 0.00997
7 | C82U A111G A120G C150A C169A U176A | 0.0173
8 | C82U A111G A120G C150A C169A U176C | 0.0192
9 | C82U A111G A120G C150A C169A U176G | 0.00577
10 | C82U A111G A120G C150A C169G | 0.00939
11 | C82U A111G A120G C150A C169G U176A | 0.0186
12 | C82U A111G A120G C150A C169G U176C | 0.0197
13 | C82U A111G A120G C150A C169G U176G | 0.00435
14 | C82U A111G A120G C150A C169U | 0.00735
15 | C82U A111G A120G C150A C169U U176A | 0.0248
16 | C82U A111G A120G C150A C169U U176C | 0.0157
17 | C82U A111G A120G C150A C169U U176G | 0.00765
18 | C82U A111G A120G C150A U176A | 0.00996
19 | C82U A111G A120G C150A U176C | 0.016
20 | C82U A111G A120G C150A U176G | 0.00658
21 | C82U A111G A120G C150G | 0.00676

Row | Variant | reverse-splicing fitness
22 | C82U A111G A120G C150G C169A | 0.00895
23 | C82U A111G A120G C150G C169A U176A | 0.00933
24 | C82U A111G A120G C150G C169A U176C | 0.0101
25 | C82U A111G A120G C150G C169A U176G | 0.00628
26 | C82U A111G A120G C150G C169G | 0.00749
27 | C82U A111G A120G C150G C169G U176A | 0.00604
28 | C82U A111G A120G C150G C169G U176C | 0.00458
29 | C82U A111G A120G C150G C169G U176G | 0.00428
30 | C82U A111G A120G C150G C169U | 0.00822
31 | C82U A111G A120G C150G C169U U176A | 0.0121
32 | C82U A111G A120G C150G C169U U176C | 0.0124
33 | C82U A111G A120G C150G C169U U176G | 0.00601
34 | C82U A111G A120G C150G U176A | 0.00527
35 | C82U A111G A120G C150G U176C | 0.00816
36 | C82U A111G A120G C150G U176G | 0.0029
37 | C82U A111G A120G C150U | 0.0125
38 | C82U A111G A120G C150U C169A | 0.0105
39 | C82U A111G A120G C150U C169A U176A | 0.0143
40 | C82U A111G A120G C150U C169A U176C | 0.0129
41 | C82U A111G A120G C150U C169A U176G | 0.00504
42 | C82U A111G A120G C150U C169G | 0.0104

Row | Variant | reverse-splicing fitness
43 | C82U A111G A120G C150U C169G U176A | 0.0144
44 | C82U A111G A120G C150U C169G U176C | 0.0174
45 | C82U A111G A120G C150U C169G U176G | 0.00447
46 | C82U A111G A120G C150U C169U | 0.00996
47 | C82U A111G A120G C150U C169U U176A | 0.0221
48 | C82U A111G A120G C150U C169U U176C | 0.015
49 | C82U A111G A120G C150U C169U U176G | 0.00611
50 | C82U A111G A120G C150U U176A | 0.00985
51 | C82U A111G A120G C150U U176C | 0.0156
52 | C82U A111G A120G C150U U176G | 0.00506
53 | C82U A111G A120G C169A | 0.0106
54 | C82U A111G A120G C169A U176A | 0.0167
55 | C82U A111G A120G C169A U176C | 0.023
56 | C82U A111G A120G C169A U176G | 0.00398
57 | C82U A111G A120G C169G | 0.0125
58 | C82U A111G A120G C169G U176A | 0.0186
59 | C82U A111G A120G C169G U176C | 0.0247
60 | C82U A111G A120G C169G U176G | 0.00369
61 | C82U A111G A120G C169U | 0.0109
62 | C82U A111G A120G C169U U176A | 0.023
63 | C82U A111G A120G C169U U176C | 0.0174

Row | Variant | reverse-splicing fitness
64 | C82U A111G A120G C169U U176G | 0.00533
65 | C82U A111G A120G U176A | 0.013
66 | C82U A111G A120G U176C | 0.0144
67 | C82U A111G A120G U176G | 0.00466
68 | C82U A111G A120U | 0.0431
69 | C82U A111G A120U A145C | 0.0379
70 | C82U A111G A120U A145C C150A | 0.00504
71 | C82U A111G A120U A145C C150A C169A | 0.00199
72 | C82U A111G A120U A145C C150A C169A U176A | 0.00213
73 | C82U A111G A120U A145C C150A C169A U176C | 0.00185
74 | C82U A111G A120U A145C C150A C169A U176G | 0.00186
75 | C82U A111G A120U A145C C150A C169G | 0.00197
76 | C82U A111G A120U A145C C150A C169G U176A | 0.00205
77 | C82U A111G A120U A145C C150A C169G U176C | 0.00206
78 | C82U A111G A120U A145C C150A C169G U176G | 0.0017
79 | C82U A111G A120U A145C C150A C169U | 0.00217
80 | C82U A111G A120U A145C C150A C169U U176A | 0.00182
81 | C82U A111G A120U A145C C150A C169U U176C | 0.00235
82 | C82U A111G A120U A145C C150A C169U U176G | 0.00196
83 | C82U A111G A120U A145C C150A U176A | 0.00269
